The target of experiment [1] is T1, U-ERK2 (Homo sapiens, UniProt P28482+P63279).
T1 construct: expressed in transfected cells; host or cells: HEK293
Description: Trans-SUMOylation by U-ERK2. Type of experiment: cell-based. Particulars: protein 2 construct coexpressed with U-ERK2 and EGFP-SUMO1 in HEK293; western blot; Table 2. (A western blot detects proteins with antibodies after separation by electrophoresis.)

Experiment [2] has as its target T2, U-MEK2 (Homo sapiens, UniProt P36507+P63279).
T2 construct: expressed in transfected cells; host or cells: HEK293
Kind of experiment: Trans-SUMOylation by U-MEK2. The note with it: protein 2 construct coexpressed with U-MEK2 and EGFP-SUMO1 in HEK293; western blot; Table 1. The arrangement: key: (++), strong TransSUMOylation; (+), TransSUMOylation; (+/−) weak TransSUMOylation; (−) no detectable TransSUMOylation. The experiment is classed as cell-based. From the text:
(§1) To identify new SUMOylation substrates and to study the function of SUMOylation the Ubc9/substrate dimerisation-dependent SUMOylation system (USDDS) was developed which consists of fusions of the SUMOylation substrate and of the SUMO-conjugating enzyme Ubc9 to the chemically activatable heterodimerisation domains FKBP and FRB, respectively, as shown in FIG. 2. When the substrate protein fused to FKBP is coexpressed with Ubc9-FRB, treatment of HEK293 cells with the rapamycin-related dimerizer AP21967 induces SUMOylation of the substrate protein fused to FKBP at its specific SUMOylation site. […] Dependent on an EcoRl site in the coding sequence, seven C-terminal amino acids of the human STAT1a in the STAT1-FKBP/FRB fusion proteins are missing. For the SUMOylation analysis HEK293 (human embryonic kidney cells) cells have been used. HEK293 cells were cultured in Dulbecco's modified Eagle's medium with high glucose, complemented with 10% fetal calf serum, 2 mM L-glutamine, 100 U/ml penicillin and […] streptomycin. […]
(§2) As shown above, the SUMOylation of a protein of interest can be induced by the heterodimerisation with a binding protein fused to Ubc9. […] Therefore the protein pairs were coexpressed with EGFP-SUMO1 in HEK293 cells and after 24h the transfectants were lysed and the protein extracts were analyzed in western blots. […]

Experiment [3] deals with T3, ERK2-U (Homo sapiens, UniProt P28482+P63279).
T3 construct: expressed in transfected cells; host or cells: HEK293
T3 sequence (P28482+P63279 fused): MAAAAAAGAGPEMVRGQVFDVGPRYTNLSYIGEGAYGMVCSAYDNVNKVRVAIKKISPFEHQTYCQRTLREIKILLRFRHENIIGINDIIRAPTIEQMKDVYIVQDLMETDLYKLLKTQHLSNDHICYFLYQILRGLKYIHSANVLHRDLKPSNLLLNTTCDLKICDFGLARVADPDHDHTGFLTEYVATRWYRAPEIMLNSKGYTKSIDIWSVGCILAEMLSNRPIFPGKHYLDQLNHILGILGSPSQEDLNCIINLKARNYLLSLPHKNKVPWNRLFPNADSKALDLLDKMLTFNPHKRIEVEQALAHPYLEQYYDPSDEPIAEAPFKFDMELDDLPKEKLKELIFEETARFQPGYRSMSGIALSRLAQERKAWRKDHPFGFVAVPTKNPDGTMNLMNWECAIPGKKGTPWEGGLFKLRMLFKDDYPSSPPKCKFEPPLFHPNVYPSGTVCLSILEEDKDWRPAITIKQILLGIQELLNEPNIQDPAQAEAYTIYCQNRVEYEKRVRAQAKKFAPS
Description: Trans-SUMOylation by ERK2-U. The experiment is classed as cell-based. The note with it: protein 2 construct coexpressed with ERK2-U and EGFP-SUMO1 in HEK293; western blot; Table 2.

Experiment [4] has as its target T4, U-MK5 (Homo sapiens, UniProt P63279+Q8IW41).
T4 construct: expressed in transfected cells; host or cells: HEK293
Kind of experiment: Trans-SUMOylation by U-MK5. The experiment is classed as cell-based. The arrangement: key: (++), strong TransSUMOylation; (+), TransSUMOylation; (+/−) weak TransSUMOylation; (−) no detectable TransSUMOylation. The note with it: protein 2 construct coexpressed with U-MK5 and EGFP-SUMO1 in HEK293; western blot; Table 2. The source says:
To identify new SUMOylation substrates and to study the function of SUMOylation the Ubc9/substrate dimerisation-dependent SUMOylation system (USDDS) was developed which consists of fusions of the SUMOylation substrate and of the SUMO-conjugating enzyme Ubc9 to the chemically activatable heterodimerisation domains FKBP and FRB, respectively, as shown in FIG. 2. When the substrate protein fused to FKBP is coexpressed with Ubc9-FRB, treatment of HEK293 cells with the rapamycin-related dimerizer AP21967 induces SUMOylation of the substrate protein fused to FKBP at its specific SUMOylation site. […] Dependent on an EcoRl site in the coding sequence, seven C-terminal amino acids of the human STAT1a in the STAT1-FKBP/FRB fusion proteins are missing. For the SUMOylation analysis HEK293 (human embryonic kidney cells) cells have been used. HEK293 cells were cultured in Dulbecco's modified Eagle's medium with high glucose, complemented with 10% fetal calf serum, 2 mM L-glutamine, 100 U/ml penicillin and […] streptomycin. We performed transfection of HEK293 cells using the polyethylenimine transfection reagent. HEK293 cells of a fresh confluent 10 cm plate were transferred on a 12-well plate. After 12-24 h incubation about 70% cell confluence is reached. For each well 45 μl of serum/antibiotic free DMEM medium is mixed with 750 ng of the transfection-purity expression vector DNA (all together 47 μl) and vortexed. Then, 3 μl of vortexed polyethylenimin stock solution (1 mg/ml) is added and the mixture is vortexed. After incubation at room temperature for 10 min 450 μl fresh DMEM with antibiotics is added to the mixture and vortexed. The medium on the cells was then completely removed and immediately, the 500 μl transfection mix was added carefully to each well. The 12 well plate was rocked to ensure a proper distribution of the DNA/transfection reagent complex. After an incubation of the cells for 24 h at a 37° C. in a humidified CO2-incubator (5%) the cells were lysed in 150 μl Laemmli (2×) gel loading buffer (160 mM Tris-HCL, pH 6.8, 4% (w/v) sodium dodecyl sulphate (SDS), 20% (v/v) glycerol, 0.5% β-mercaptoethanol (v/v), 0.008% (w/v) bromophenol blue) and incubated for 10 min at 95° C. For western blot analysis the proteins were separated by SDS-PAGE, blotted on a PVDF membrane and developed with specific primary antibodies (α-Ubc9 (H81, Santa Cruz), α-pY701-STAT1 (Tyr701, Cell Signaling), α-STAT1 (Cell Signaling), α-p53 (1C12, Cell Signaling), α-SUMO1 (Cell Signaling), a horseradish peroxidase (HRP)-conjugated secondary antibody (different companies), the ECL+ (Amersham) or Immobilon™ Western (Millipore) and the LAS-3000 imaging system (Fuji).
As shown above, the SUMOylation of a protein of interest can be induced by the heterodimerisation with a binding protein fused to Ubc9. To find out if Trans-SUMOylation is useful for the characterisation of common protein interactions, protein binding pairs well known from the literature or found in two hybrid screens. […] Therefore the protein pairs were coexpressed with EGFP-SUMO1 in HEK293 cells and after 24h the transfectants were lysed and the protein extracts were analyzed in western blots.
Protein-protein interactions described in the cited references were tested for Trans-SUMOylation. Each specific protein-protein interaction was tested by coexpression of different combinations of protein 1 fused to Ubc9 (U) with protein 2 mostly fused two a tag (HA, FLAG, Myc, GST, ST). (++), strong TransSUMOylation; (+), TransSUMOylation; (+/−) weak TransSUMOylation; (−) no detectable TransSUMOylation; (MEKK1ca) the activated MAP3 kinase MEKK1, that can enhance protein SUMOylation, was coexpressed.
Protein-protein interaction of each pair of protein 1/protein 2 was tested by coexpression of different combinations of a protein 1 fused to Ubc9 (U) with protein 2 mostly fused two a Tag (HA, FLAG, GST, ST). […]

Experiment [5] addresses T5, U-p38α (Homo sapiens, UniProt P63279+Q16539).
T5 construct: expressed in transfected cells; host or cells: HEK293
Description: Trans-SUMOylation by U-p38α. Type of experiment: cell-based. The note with it: protein 2 construct coexpressed with U-p38α and EGFP-SUMO1 in HEK293; western blot; Table 1.

Experiment [6] has as its target T6, MEK2-U (Homo sapiens, UniProt P36507+P63279).
T6 construct: expressed in transfected cells; host or cells: HEK293
Description: Trans-SUMOylation by MEK2-U. Type of experiment: cell-based. More on the design: key: (++), strong TransSUMOylation; (+), TransSUMOylation; (+/−) weak TransSUMOylation; (−) no detectable TransSUMOylation. Particulars: protein 2 construct coexpressed with MEK2-U and EGFP-SUMO1 in HEK293; western blot; Table 1.
Source text: as §1, §2

Experiment [7] concerns the target T7, MK2-U (Homo sapiens, UniProt P49137+P63279).
T7 construct: expressed in transfected cells; host or cells: HEK293
Kind of experiment: Trans-SUMOylation by MK2-U. The note with it: protein 2 construct coexpressed with MK2-U and EGFP-SUMO1 in HEK293; western blot; Table 2. Type of experiment: cell-based.

The target of experiment [8] is T8, U-PSMC3 (Homo sapiens, UniProt P17980+P63279).
T8 construct: expressed in transfected cells; host or cells: HEK293
T8 sequence (P63279+P17980 fused): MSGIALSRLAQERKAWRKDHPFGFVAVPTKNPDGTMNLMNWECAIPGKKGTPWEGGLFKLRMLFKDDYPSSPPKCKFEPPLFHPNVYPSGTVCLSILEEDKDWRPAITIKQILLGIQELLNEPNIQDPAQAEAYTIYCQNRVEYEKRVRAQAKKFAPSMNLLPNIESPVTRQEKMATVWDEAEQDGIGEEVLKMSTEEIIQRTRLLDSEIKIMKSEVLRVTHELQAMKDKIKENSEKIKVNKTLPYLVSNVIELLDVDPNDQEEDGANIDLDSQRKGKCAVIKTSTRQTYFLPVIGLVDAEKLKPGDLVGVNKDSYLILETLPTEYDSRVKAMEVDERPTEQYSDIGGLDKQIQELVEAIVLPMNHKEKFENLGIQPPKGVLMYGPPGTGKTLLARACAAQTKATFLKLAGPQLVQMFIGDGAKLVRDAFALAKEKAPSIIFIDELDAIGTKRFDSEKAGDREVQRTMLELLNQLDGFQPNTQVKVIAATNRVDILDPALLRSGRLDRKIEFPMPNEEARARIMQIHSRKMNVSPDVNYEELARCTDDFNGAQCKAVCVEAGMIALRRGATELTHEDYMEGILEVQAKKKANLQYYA
Description: Trans-SUMOylation by U-PSMC3. Type of experiment: cell-based. The arrangement: key: (++), strong TransSUMOylation; (+), TransSUMOylation; (+/−) weak TransSUMOylation; (−) no detectable TransSUMOylation. Particulars: protein 2 construct coexpressed with U-PSMC3 and EGFP-SUMO1 in HEK293; western blot; Table 1.
Source text: as §1, §2

Experiment [9] addresses T9, U-TAF10 (Homo sapiens, UniProt P63279+Q12962).
T9 construct: Ubc9 (fusion partner); expressed in transfected cells; host or cells: HEK293
Kind of experiment: Trans-SUMOylation by U-TAF10. Type of experiment: cell-based. More on the design: key: (++), strong TransSUMOylation; (+), TransSUMOylation; (+/−) weak TransSUMOylation; (−) no detectable TransSUMOylation. The note with it: protein 2 construct coexpressed with U-TAF10 and EGFP-SUMO1 in HEK293; western blot; Table 2.
Source text: as §1, §2

In experiment [10] the test system is STAT1. Kind of experiment: Interplay of STAT1 Y701 phosphorylation and K703 SUMOylation by USDDS, western blot. The experiment is classed as cell-based, human. The note with it: HEK293, USDDS with AP21967 1 μM and interferon-β, any stimulation scenario.
The target of experiment [11] is T10, STAT1-U (Homo sapiens, UniProt P42224+P63279).
T10 construct: expressed in transfected cells; host or cells: HEK293
T10 sequence (P42224+P63279 fused): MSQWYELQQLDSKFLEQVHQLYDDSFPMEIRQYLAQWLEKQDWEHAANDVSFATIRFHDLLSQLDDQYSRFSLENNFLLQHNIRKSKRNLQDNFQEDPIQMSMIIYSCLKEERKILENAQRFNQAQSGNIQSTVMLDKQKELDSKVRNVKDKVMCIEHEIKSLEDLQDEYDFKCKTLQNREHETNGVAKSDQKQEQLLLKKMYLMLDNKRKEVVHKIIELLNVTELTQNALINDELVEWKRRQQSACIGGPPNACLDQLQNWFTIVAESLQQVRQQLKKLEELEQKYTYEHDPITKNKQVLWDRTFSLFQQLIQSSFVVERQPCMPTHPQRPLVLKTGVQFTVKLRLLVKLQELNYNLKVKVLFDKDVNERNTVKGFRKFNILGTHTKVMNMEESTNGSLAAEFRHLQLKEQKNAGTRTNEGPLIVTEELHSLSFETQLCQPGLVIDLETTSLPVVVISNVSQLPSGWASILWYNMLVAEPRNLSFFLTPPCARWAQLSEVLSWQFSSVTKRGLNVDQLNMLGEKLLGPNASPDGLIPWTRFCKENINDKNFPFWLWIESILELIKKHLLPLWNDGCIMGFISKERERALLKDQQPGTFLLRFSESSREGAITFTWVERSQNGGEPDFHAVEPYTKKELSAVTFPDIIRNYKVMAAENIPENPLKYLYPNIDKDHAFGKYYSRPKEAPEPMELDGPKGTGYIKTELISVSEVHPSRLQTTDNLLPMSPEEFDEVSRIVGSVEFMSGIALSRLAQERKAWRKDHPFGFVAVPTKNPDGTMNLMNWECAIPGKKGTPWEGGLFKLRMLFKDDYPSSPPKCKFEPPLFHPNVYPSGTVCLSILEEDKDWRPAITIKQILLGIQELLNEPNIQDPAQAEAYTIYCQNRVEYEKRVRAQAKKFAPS
Kind of experiment: Trans-SUMOylation by STAT1-U. Type of experiment: cell-based. The note with it: protein 2 construct coexpressed with STAT1-U and EGFP-SUMO1 in HEK293; western blot; Table 1.

T7 sequence (P49137+P63279 fused): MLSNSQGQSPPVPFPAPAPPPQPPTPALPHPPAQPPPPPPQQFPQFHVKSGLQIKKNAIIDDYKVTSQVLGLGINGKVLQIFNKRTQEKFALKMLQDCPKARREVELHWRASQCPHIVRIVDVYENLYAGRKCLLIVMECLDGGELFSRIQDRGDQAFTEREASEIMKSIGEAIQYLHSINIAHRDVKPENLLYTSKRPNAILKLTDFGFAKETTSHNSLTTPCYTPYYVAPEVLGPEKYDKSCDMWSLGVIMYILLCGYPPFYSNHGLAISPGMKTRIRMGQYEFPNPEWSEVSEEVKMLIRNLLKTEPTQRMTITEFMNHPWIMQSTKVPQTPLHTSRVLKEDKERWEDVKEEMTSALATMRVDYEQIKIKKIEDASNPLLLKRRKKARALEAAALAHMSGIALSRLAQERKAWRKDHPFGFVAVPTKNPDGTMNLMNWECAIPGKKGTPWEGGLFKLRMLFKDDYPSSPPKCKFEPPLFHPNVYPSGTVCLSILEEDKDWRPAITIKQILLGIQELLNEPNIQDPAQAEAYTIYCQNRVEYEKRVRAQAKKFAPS
T9 sequence (P63279+Q12962 fused): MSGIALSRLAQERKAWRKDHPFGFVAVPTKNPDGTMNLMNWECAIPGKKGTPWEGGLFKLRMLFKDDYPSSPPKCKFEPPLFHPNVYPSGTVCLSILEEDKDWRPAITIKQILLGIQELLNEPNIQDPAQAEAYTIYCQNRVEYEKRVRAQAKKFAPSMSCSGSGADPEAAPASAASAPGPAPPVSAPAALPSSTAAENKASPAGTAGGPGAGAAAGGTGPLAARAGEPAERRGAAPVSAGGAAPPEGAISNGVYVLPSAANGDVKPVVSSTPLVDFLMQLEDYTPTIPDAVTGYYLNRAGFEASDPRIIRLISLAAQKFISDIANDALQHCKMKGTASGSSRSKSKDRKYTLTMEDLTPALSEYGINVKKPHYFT
T1 sequence (P63279+P28482 fused): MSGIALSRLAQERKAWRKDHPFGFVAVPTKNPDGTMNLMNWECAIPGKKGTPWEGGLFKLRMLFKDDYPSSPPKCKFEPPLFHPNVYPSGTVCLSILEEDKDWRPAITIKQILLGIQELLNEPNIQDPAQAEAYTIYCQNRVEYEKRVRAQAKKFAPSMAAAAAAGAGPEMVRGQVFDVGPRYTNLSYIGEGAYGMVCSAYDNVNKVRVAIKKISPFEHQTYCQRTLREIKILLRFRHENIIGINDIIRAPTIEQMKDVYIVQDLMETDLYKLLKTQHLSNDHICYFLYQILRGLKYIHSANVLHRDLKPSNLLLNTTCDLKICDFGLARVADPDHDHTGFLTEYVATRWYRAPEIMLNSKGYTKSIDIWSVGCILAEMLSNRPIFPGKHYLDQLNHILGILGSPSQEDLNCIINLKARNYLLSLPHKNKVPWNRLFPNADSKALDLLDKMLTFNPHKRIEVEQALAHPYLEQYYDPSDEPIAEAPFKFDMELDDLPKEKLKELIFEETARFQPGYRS
T4 sequence (P63279+Q8IW41 fused): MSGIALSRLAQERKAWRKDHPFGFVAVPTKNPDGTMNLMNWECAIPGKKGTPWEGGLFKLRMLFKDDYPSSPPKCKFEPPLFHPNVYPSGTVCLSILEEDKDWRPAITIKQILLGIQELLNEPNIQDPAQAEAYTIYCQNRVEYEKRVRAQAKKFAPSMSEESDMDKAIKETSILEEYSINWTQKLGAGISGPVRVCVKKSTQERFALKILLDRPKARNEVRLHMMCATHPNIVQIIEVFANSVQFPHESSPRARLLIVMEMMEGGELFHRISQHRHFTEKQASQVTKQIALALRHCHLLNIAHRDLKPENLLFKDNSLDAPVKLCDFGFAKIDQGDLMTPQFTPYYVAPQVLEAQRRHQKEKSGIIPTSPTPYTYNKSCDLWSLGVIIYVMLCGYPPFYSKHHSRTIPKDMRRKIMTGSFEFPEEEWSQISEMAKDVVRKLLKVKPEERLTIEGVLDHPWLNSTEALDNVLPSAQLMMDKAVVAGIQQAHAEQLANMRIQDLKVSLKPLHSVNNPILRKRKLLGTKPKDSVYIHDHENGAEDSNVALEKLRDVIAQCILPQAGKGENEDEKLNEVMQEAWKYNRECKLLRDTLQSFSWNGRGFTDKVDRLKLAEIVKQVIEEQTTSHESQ
T5 sequence (P63279+Q16539 fused): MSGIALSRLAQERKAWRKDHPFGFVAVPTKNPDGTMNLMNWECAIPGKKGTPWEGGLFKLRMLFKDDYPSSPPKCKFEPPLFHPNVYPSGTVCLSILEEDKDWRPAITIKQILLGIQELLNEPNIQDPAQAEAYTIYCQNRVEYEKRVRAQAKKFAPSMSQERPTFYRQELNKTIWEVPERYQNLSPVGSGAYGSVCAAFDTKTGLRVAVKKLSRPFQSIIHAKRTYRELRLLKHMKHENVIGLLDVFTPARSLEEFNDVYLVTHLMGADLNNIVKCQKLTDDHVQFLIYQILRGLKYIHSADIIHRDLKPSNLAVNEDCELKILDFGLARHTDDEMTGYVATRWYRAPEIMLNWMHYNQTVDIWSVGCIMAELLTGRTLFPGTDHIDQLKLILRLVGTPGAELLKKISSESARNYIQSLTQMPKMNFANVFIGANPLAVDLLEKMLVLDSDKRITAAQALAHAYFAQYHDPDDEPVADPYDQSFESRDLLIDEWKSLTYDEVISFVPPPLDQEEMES

Consider GST-ERK2: ERK2 fused to GST tag, for which the Trans-SUMOylation result is recorded as “−” in experiment [1]; “+” in [2]; “−” in experiment [3]; “−” in experiment [4]; “−” in experiment [5]; “+” in experiment [6].

With GST-PSMC3: PSMC3 fused to GST tag, the Trans-SUMOylation result was “−” in experiment [7] and “+” in experiment [8].

Turning to GST-TAF10: TAF10 fused to GST tag, the Trans-SUMOylation entry is on record as “−” in experiment [7] and “(+/−)” in [9].

On to “STAT1-FKBP: human STAT1a fused to FKBP heterodimerisation domain”, for which the Trans-SUMOylation result in experiment [7] and in [11] was “−” throughout. The “double modification of STAT1 by SUMOylation and Y701 phosphorylation” value in [10] was “no double modification”.

The record behind these values is patent US8551717B2, “Method for determining sumoylation” (Medizinische Hochschule Hannover, priority 2008, dated 2013).
